Here are results for five molecules from paper PMC10801562 (Antibodies, 2024).

Where a chain is given by its changes, count along the chain named.

This assay deals with T1, recombinant human CD3ε-CD3δ heterodimeric protein (CD3εδ) (Homo sapiens).
T1 construct: human CD3ε of the recombinant CD3εδ heterodimer; human CD3δ of the recombinant CD3εδ heterodimer; source: in-house prepared
T1 chain 1: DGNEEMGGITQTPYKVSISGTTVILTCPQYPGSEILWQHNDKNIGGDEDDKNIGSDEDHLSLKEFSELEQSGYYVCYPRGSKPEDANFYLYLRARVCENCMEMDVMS
T1 chain 2: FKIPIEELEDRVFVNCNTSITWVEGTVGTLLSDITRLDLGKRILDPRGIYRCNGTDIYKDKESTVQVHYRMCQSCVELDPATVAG
Kind of assay: SPR; Biacore T200, 37 °C, pH 7.4, PB-P+; antibody captured (630 RU) by anti-mouse IgG (Fc) antibody on a CM4 chip; human CD3εδ as analyte, 1.2-4800 nmol/L; 1:1 binding model (mUCHT1, mSP34). The following applies: both partners purified. For orientation: SPR reads the build-up and loss of mass on a sensor chip optically.

By Kd is commonly meant a measure of binding affinity in units of concentration.

B1: mUCHT1 mIgG2a, homodimeric antibody without FAST-Ig mutations (antibody, V domains shown)
VH: EVQLQQSGPELVKPGASMKISCKASGYSFTGYTMNWVKQSHGKNLEWMGLINPYKGVSTYNQKFKDKATLTVDKSSSTAYMELLSLTSEDSAVYYCARSGYYGDSDWYFDVWGQGTTLTVFS
VL: DIQMTQTTSSLSASLGDRVTISCRASQDIRNYLNWYQQKPDGTVKLLIYYTSRLHSGVPSKFSGSGSGTDYSLTISNLEQEDIATYFCQQGNTLPWTFAGGTKLEIK
notes: VH of the original mouse antibody mUCHT1; mouse IgG2a (mIgG2a) heavy chain constant region; numbers count on: Eu numbering; VL of the original mouse antibody mUCHT1; mouse kappa light chain constant region (CL); Whole IgG of one HC and one LC; also called anti-CD3; H2L2H2L2; source: Expi293F, transiently expressed, purified (Ab-Capcher MAG2, MonoSpin ProA or MonoSpin ProG); copies: 2 + 2
Consider B1, for which the Kd came out at 1.02 nM.

B2: mUCHT1 mIgG2a V1+C19, homodimeric antibody with FAST-Ig V1+C19 mutations (antibody, V domains shown)
VH: B1 VH with Q39E
VL: B1 VL with Q38K
notes: VH of mUCHT1; mouse IgG2a (mIgG2a) heavy chain constant region; numbers count on: Eu numbering; VL of mUCHT1; mouse kappa light chain constant region (CL); numbers count on: Kabat numbering; Whole IgG of one HC and one LC; also called anti-CD3; H2L2H2L2; source: Expi293F, transiently expressed, purified (Ab-Capcher MAG2, MonoSpin ProA or MonoSpin ProG); copies: 2 + 2
On to B2, for which the Kd amounted to 1.32 nM.

B3: mUCHT1 mIgG1, homodimeric antibody without FAST-Ig mutations (antibody, V domains shown)
VH: B1 VH
VL: B1 VL
notes: VH of the original mouse antibody mUCHT1; mouse IgG1 (mIgG1) heavy chain constant region; numbers count on: Eu numbering; VL of the original mouse antibody mUCHT1; mouse kappa light chain constant region (CL); Whole IgG of one HC and one LC; also called anti-CD3; H2L2H2L2; source: Expi293F, transiently expressed, purified (Ab-Capcher MAG2 or MonoSpin ProG); copies: 2 + 2
B3: the Kd came to 1.45 nM.

B4: mSP34 mIgG2a V1+C19, homodimeric antibody with FAST-Ig V1+C19 mutations (antibody, V domains shown)
VH: EVQLVESGGGLVQPKGSLKLSCAASGFTFNTYAMNWVREAPGKGLEWVARIRSKYNNYATYYADSVKDRFTISRDDSQSILYLQMNNLKTEDTAMYYCVRHGNFGNSYVSWFAYWGQGTLVTVSA
VL: QAVVTQESALTTSPGETVTLTCRSSTGAVTTSNYANWVQKKPDHLFTGLIGGTNKRAPGVPARFSGSLIGDKAALTITGAQTEDEAIYFCALWYSNLWVFGGGTKLTVL
notes: VH of mSP34; mouse IgG2a (mIgG2a) heavy chain constant region; numbers count on: Eu numbering; VL (lambda) of mSP34; mouse lambda light chain constant region (CL); numbers count on: Kabat numbering; Whole IgG of one HC and one LC; also called anti-CD3; H2L2H2L2; source: Expi293F, transiently expressed, purified (Ab-Capcher MAG2, MonoSpin ProA or MonoSpin ProG); copies: 2 + 2
Regarding B4, the Kd worked out at 25.7 nM.

B5: mSP34 mIgG1, homodimeric antibody without FAST-Ig mutations (antibody, V domains shown)
VH: B4 VH with E39Q
VL: B4 VL with K40E
notes: VH of the original mouse antibody mSP34; mouse IgG1 (mIgG1) heavy chain constant region; numbers count on: Eu numbering; VL (lambda) of the original mouse antibody mSP34; mouse lambda light chain constant region (CL); Whole IgG of one HC and one LC; also called anti-CD3; H2L2H2L2; source: Expi293F, transiently expressed, purified (Ab-Capcher MAG2 or MonoSpin ProG); copies: 2 + 2
As to B5, the Kd was determined as 20.9 nM.
